Data on two molecules can be found in patent US20080233589A1 (WASHINGTON UNIVERSITY IN ST LOUIS, published 2008).

Assay [1] concerns the target T1, human FKBP-12 fused through a flexible Gly/Ser linker to a C-terminal luciferase fragment (human, UniProt P62942 2-108). The experiment in a line: cell-based or functional assay.
The target of assay [2] is T1, human FKBP-12 fused through a flexible …. The experiment in a line: split luciferase complementation in live HEK293T cells, rapamycin titrated for 8 h; all productive click beetle green or red fragment pairs (apparent Kd on the rapamycin concentration).
Method: The experiments were set up in a 96 well plate format. Each well was transfected with 75 ng DNA, 225 nL Fugene6, and 10,000 cells in DMEM and heat-inactivated FBS. The cells were allowed to incubate for 48 hours. […] After 8 hours, images were taken using the Xenogen IVIS 100 optical imager. The cells were imaged in MEBSS supplemented with 1% serum and 150 μg/mL of D-luciferin. The plates were incubated at 37° C. for 10 minutes and then imaged. One minute images were taken at all available filters with a FOV C and binning of 4. Experimental DNA was prepared in molar equivalent ratios to ensure equal parts intact protein and recombined heteroprotein fragments of the various split luciferases.
For assay [3] the target is unchanged. The experiment in a line: split luciferase complementation in HEK293T cells, fold induction by rapamycin (FIG. 7).

T1 sequence (P62942 2-108): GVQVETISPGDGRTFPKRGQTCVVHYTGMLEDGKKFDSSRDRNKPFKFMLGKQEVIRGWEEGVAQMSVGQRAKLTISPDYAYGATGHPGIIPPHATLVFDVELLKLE

B1: FRB domain of human mTOR (residues 2024-2113) fused through a flexible Gly/Ser linker to an N-terminal luciferase fragment (other)
chain: HEMWHEGLEEASRLYFGERNVKGMFEVLEPLHAMMERGPQTLKETSFNQAYGRDLMEAQEWCRKYMKSGNVKDLTQAWDLYYHVFRRISK
notes: range 2024-2113; Stands for the set of FRB-NLuc fusions (GN, RN, FN) expressed in HEK293T cells; also called FRP; FRB-NLuc; not shown: flexible Gly/Ser linker with multiple cloning site; N-terminal luciferase fragment; differs between the pairs pooled in the result (click beetle green or red residues 2-413)
Regarding B1, the “Ki for FK506 inhibition of rapamycin-induced FRB and FKBP binding (luciferase complementation, 10 nM rapamycin)” value in assay [1] is 1.57 nM. Besides, the Kd in assay [2] came out at 0.25 nM.

B2: FRB mutant S2035I fused to an N-terminal luciferase fragment (other)
chain: HEMWHEGLEEAIRLYFGERNVKGMFEVLEPLHAMMERGPQTLKETSFNQAYGRDLMEAQEWCRKYMKSGNVKDLTQAWDLYYHVFRRISK
notes: range 2024-2113; also called ΔF; mutant S20351 FRB; not shown: flexible Gly/Ser linker with multiple cloning site; N-terminal luciferase fragment of the 'native split luciferase pairs'
On to B2, for which the binding result in assay [3] is “no binding”.
